From the DeepSol protein solubility set

test: soluble on expression in E. coli; label from the status in PepcDB or PDB records

Sequence	soluble on expression in E. coli
MGSDKIHHHHHHMILMRISIKGLGISGLYLYERLKQSGFDVTAFDVRRRDFYIPCAYATNFNLMKPFMSRIGIDFDNYVLFRSETITMSGENGSEIEFPSAGLVTFDRNGLQRDMMNRIEMETETKADLVVDATGISRSYLGRINGDLTYYTKEYLTDHVIHRDFYFLFLNRGVGYLWEFPLDRGHFHVGIGSIRRDDLNRIDRYNRIRITGRRIRMKPLFEVASIGNIVGIGESVGTVSPLTGEGILPSIESAELLYQAISDKSDPNEAIRLYLKKLNTSFSHYYKLSDFVRKVQTGKLLRPSNIRYASLITKDMKHFGIDFSLGKAVRALIQ	not soluble
MCAKIALLLVLVGAASAAVLPDKFYGTFDLDHSENFDEYLTAKGYGWFTRKLVTFATFKKVFTKTSNKNLFDYSNLTSKKDVHYKNVQLGKAFQGEGLDSTKHEITFTLKDGHLFEHHKPLEGGDAKEETYEYLFDKEFLLVRMSFNGVEGRRFYKRLP	not soluble
MIKRFLEDTTDDGELSKFVKDFSGNASCHPPEAKTWASRPQVPEPRPQAPDLYDDDLEFRPPSRPQSSDNQQYFCAPAPLSPSARPRSPWGKLDPYDSSEDDKEYVGFATLPNQVHRKSVKKGFDFTLMVAGESGLGKSTLVNSLFLTDLYRDRKLLGAEERIMQTVEITKHAVDIEEKGVRLRLTIVDTPGFGDAVNNTECWKPVAEYIDQQFEQYFRDESGLNRKNIQDNRVHCCLYFISPFGHGLRPLDVEFMKALHQRVNIVPILAKADTLTPPEVDHKKRKIREEIEHFGIKIYQFPDCDSDEDEDFKLQDQALKESIPFAVIGSNTVVEARGRRVRGRLYPWGIVEVENPGHCDFVKLRTMLVRTHMQDLKDVTRETHYENYRAQCIQSMTRLVVKERNRNKLTRESGTDFPIPAVPPGTDPETEKLIREKDEELRRMQEMLHKIQKQMKENY	not soluble
MDVDRLMRDLSVEQLENIQQNLEKEMEGKRESLREMVGRRYRDVLEASSEVRHVCSLADKLASDIANTRVGYQSTHVRTGGREEQKAGEHLYAVNYLVSSIGGDSGEPLDDVVALCMVEHLQKQLISNHSSPMIHKNARALTNRIVATRSELEFQNCSTLLDISRSDWATNQLAAIALLQGKDISQLLELYLEKRFEHVTHLIEDSATILNIVDEMKKTLAVVEELFVHGELIHAIHSVCNGQYKCELIREMCADQAYSFEKTINEDMDRVWRHLREKLSGRGAGTLPSQLVGEKCAAWIEKTCAVTHKLVAEVCEYFDNLDQIIDLLQAITASLKQDWPRIGSNRSVYDKLLQTAVVDKAKILLIQMIESIELFAKKRFESTSDGPQTAIFDERTYHPDSQSHIGISTQLYNCVKTLWESLEQTNEKCAQFETICTPMADMATSNALKETMATNVLQLLLRLCELHSDKQEGSARFLARARLALALVHSESTLICKLLDKDSQRITSLNQRLHSIIEKNLG	not soluble
RPARQVRRLEFNQAMDDFKTMFPNMDYDIIECVLRANSGAVDATIDQLLQMNLE	soluble
MSLKYEGSISINATKDQILKLLDNPDQVAQCFPGIKSFSKEGEEYKVVGVTGIGFIKGEYRANVRFEKIDDNKRKIIAKGTGMNSNVDIDAIAEALDGKINYSADVKVAGVLASVGARLMGSAVEKIINDLFNCIKERVIKEGHHHHHH	soluble
SDDKPNPEALSDSSERLFSFGVIADVQFADLEDGFNFQGTRRRYYRHSLLHLQGAIEDWNNESSMPCCVLQLGDIIDGYNAQYNASKKSLELVMDMFKRLKVPVHHTWGNHEFYNFSREYLTHSKLNTKFLEDQIVHHPETMPSEDYYAYHFVPFPKFRFILLDAYDLSVLGVDQSSPKYEQCMKILREHNPNTELNSPQGELFL	soluble
MATVDPIRYPIGTFQAPQQFEAGEVQEWIAAIRGLPNDLRTAVSGLNDEQLNTPYRDGGWTVAQVVHHLADASMNAFLRTKWGVTEDGPTVKPFAESEWAKTADACSLPIEPSLLLLDGLHARWAALLESMTEADFHRTVRPEGAAGEMPLYVLTALYAWHGKHHTAQVASLRKRKGW	not soluble
MGSDKIHHHHHHLETSPSSSVSGNELLGTATNALVSLNGVYRAMYTAGVSNSSNTHQCFGITAYNLVADVMGEDCIMNGQGSGWFWYDCVYNVKSRYTSTGWRSYDMWNGYYTWISNVNYILAEEETMSGSETEKNYVLGQAYAVRAYSYFMLAQMFSRTYKGHESEPCVPLYTEPTDIATEGKGRATIEEVYQQITSDLDKAITMLGNSGKRKHISHINEAVASGIKARVALVMEDWQTALDAANAAISKSGCSVGTGTAVTGGMNDATANNVMWAAEIIADQSGMYAGFFTHMDADQGKYGASARKQINKLLYAKLGTNDVRKKWWNPQDENNEKNGYQQEKFKFKDYAKWTGDYIFMRIEEMFLTAAEASCRLNDDKGARLMLNSLMQKRDEDYTCKKTGTALGKLTSDETGSLLEEIIIQRRIELWGEFGRIYDIRRLKQGFRRTADMGWPSSALIAGTDTEDPESYAWVLTIPQTEFDGNPNMDPSKDQNPIGDHK	not soluble
MSLDYGINFWSDNDFIIEDGQVKINYKTKPAIIDIVKKVREEGYRGPLLLRFPHLIKKQVDKIFTHFETSIKQYHYKGQFKAVFPLKVNQFPNFVLPLVELSQNRCYGLEAGSKAELIIAMAYTNKGSPITVNGFKDKEMISLGFIAANMGHEITLTIEGLNELETIIEVAEEMGKPCPNIGLRIRLHSSGIGIWAKSGGINSKFGLTSTELLEGIRLLEKHKLIEKFTMIHFHIGSQISDISPLKKAMREAGNIYAELRKMGAKNLKSVNIGGGLAVEYTQHEGSPNRNYTLDEFAGDVVFSLKEIAKNKKEPEPDIYIESGRYIAASHALLVAPVLELFSQEYDEKALHLKDKNPQLIEELNELYNTVNEKYAIEYLHDSLDHMESLLTLFDLGYIDLQDRSNTEILVHLIIKKVIKILKHKNHSDIIRIQEQVQERYLLNCSFFQSLPDYWGLEQSFPVMPLDRLNKRPTRSASLWDITCDSDGEIGFDLNKPLFLHDVDVTTEEYFLGFFLVGAYQEVLGMRHNLFTHPTELSVEFEEDGTHSVTNLLEAQTILDVLDDLDYDEGHHHHHH	not soluble
VTYNLEKRPTTIVLINDTPLNVLLDTGADTSVLTTAHYNRLKYRGRKYQGTGIGGVGGNVETFSTPVTIKKKGRHIKTRMLVADIPVTILGRDILQDLGAKLVL	soluble
SMGLPPGWDEYKTHNGKTYYYNHNTKTSTWTDPRMSS	soluble
MSLGRLVLNTKEELANERLMTLKIAEMKEAMRTLIFPPSMHFFQAKHLIERSQVFNILRMMPKGAALHLHDIGIVTMDWLVRNVTYRPHCHICFTPRGIMQFRFAHPTPRPSEKCSKWILLEDYRKRVQNVTEFDDSLLRNFTLVTQHPEVIYTNQNVVWSKFETIFFTISGLIHYAPVFRDYVFRSMQEFYEDNVLYMEIRARLLPVYELSGEHHDEEWSVKTYQEVAQKFVETHPEFIGIKIIYSDHRSKDVAVIAESIRMAMGLRIKFPTVVAGFDLVGHEDTGHSLHDYKEALMIPAKDGVKLPYFFHAGETDWQGTSIDRNILDALMLNTTRIGHGFALSKHPAVRTYSWKKDIPIEVCPISNQVLKLVSDLRNHPVATLMATGHPMVISSDDPAMFGAKGLSYDFYEVFMGIGGMKADLRTLKQLAMNSIKYSTLLESEKNTFMEIWKKRWDKFIADVATKEGHHHHHH	not soluble
MLSAESLKQIDIELAKYPADQRRSAIMGALRIAQTEKGWLAPETIAFVADYIGISPAQAYEVATFYNMYDLEPVGKYKLTVCTNLPCALRGGMATGEYLKQKLGISYGETTPDGKFTLVEGECMGACGDAPVMLLNNHKMCSFMTEEAIEKKLAELELEHHHHHH	soluble
MTMTLVNKNRKSRDENAMAKYNEKELADTSKFLSFVLRHKPEAIGIVLDREGWADINKLILCAQKAGKRLTRALLDTVVATSDKKRFSYSSDGRCIRAVQGHSTSQVAISFAEKTPPQFLYHGTASRFLDEIKKQGLIAGDRHYVHLSADEATARKVGARHGSPVVLTVKAQEMAKRGIPFWQAENGVWLTSTVAVEFLEWSFMPTGVQKQLEHHHHHH	soluble
MGSDKIHHHHHHIYWEFTTKNMLVLEFIEGIRIDDLESLNASKHNIKNITEIGTEVFFLQVFRDGFFHGDMHPGNILIDKEGALIPIDFGIMGRLSNKDRQFLALLLTYLLNKNYRKVVEIHDEANMLGKDVSHDHLSQAIRAISTPILNKPIGEVSLAKLLGQILSLSKKFNIEVQPQFTLLQKTMLMAEGTTRQINPNINMWELSRPLIDKWINDTHDPFKVLEEWFHKNKIALLKIPEIINKIDKILS	not soluble
